Laboratory results as given in the supplement of paper PMC9732359.
± gives the uncertainty stated by the source.

Test: protein stability index of a GFP-peptide fusion (yeast GPS) (PSI 1-4); higher = more stable; sorted into four equal gates, so the index is relative within each strain
Outline: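 Plasmids in a pooled yeast library fused tiled 17-residue yeast protein peptides downstream of GFP and also expressed Cherry. Mid-log cultures grown without leucine were sorted into four equal gates by GFP/Cherry fluorescence ratio. Each gate's plasmids were PCR-amplified and Illumina-sequenced, and reads were matched to strains by barcodes. The protein stability index is derived by multiplying each gate's read frequency by its gate number and summing the results.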

Sequence	protein stability index (doa10∆)	protein stability index (pdr5∆)	protein stability index (san1∆)	protein stability index (ubr1∆)
RRFYKNWYKSKKKAFTK [RPL3]	2.98 ± 0.16	2.8 ± 0.11	1.6 ± 0.2	1.78 ± 0.08
NGNTSSKTVVTLSEPVQ [FAS1]	2.91 ± 0.072	3.14 ± 0.066	2.96 ± 0.059	2.96 ± 0.055
PLQGIFHNAVFNSFRRF [QCR8]	2.67 ± 0.064	2.47 ± 0.048	2.38 ± 0.054	1.96 ± 0.031
LRKSRETVKLPRVSNQS [RRI2]	–	3.42 ± 0.22	–	–
LPSWSLGKWYSKEDYET [ARP7]	1.62 ± 0.17	1.12 ± 0.14	–	1.09 ± 0.11
TSKSLVKRYRLAPTQLS [SIN4]	2.63 ± 0.06	2.26 ± 0.051	2.11 ± 0.077	2.66 ± 0.037
NANRVFRTRFQDGTSVV [SMC2]	2.74 ± 0.16	1.29 ± 0.1	2.31 ± 0.26	2.34 ± 0.085
TVQSWLCDLFVNGSITD [NUT1]	1.46 ± 0.038	1.45 ± 0.048	1.48 ± 0.086	1.23 ± 0.043
GETIKSNAVTQTNIWEE [SEM1]	3.37 ± 0.087	3.54 ± 0.16	2.97 ± 0.17	3.43 ± 0.14
QDLNQRFQDPYVAIVVD [RRI1]	–	2.79 ± 0.11	2.29 ± 0.15	2.71 ± 0.12
DPVSGAILVPMTVNDQP [YJR042W/NUP85]	1.95 ± 0.18	2.03 ± 0.16	2.28 ± 0.087	2.4 ± 0.085
VIEEDYDDEQNTSAQHV [IRR1]	3.5 ± 0.097	2.95 ± 0.12	3.12 ± 0.08	3.52 ± 0.19
LKEYQSKIIVFPRNGKA [RPL13A]	3.04 ± 0.088	2.9 ± 0.091	2.98 ± 0.055	3 ± 0.076
LLPANLLSLNSVRSLQK [SRP68]	2.71 ± 0.059	2.48 ± 0.063	2.49 ± 0.057	2.81 ± 0.046
KENELLFGEKSILGKFC [YCS4]	1.55 ± 0.04	1.72 ± 0.051	1.59 ± 0.11	1.73 ± 0.039
KEAAAIAEGKSKQDASP [RPL8B]	2.96 ± 0.1	3.35 ± 0.083	2.99 ± 0.068	3.06 ± 0.062
YIDEMYNHNDGGDGRDY [RRI1]	2.47 ± 0.1	3.26 ± 0.1	3.3 ± 0.21	2.75 ± 0.13
YVGNKRLELAGQLISLL [RET1]	2.84 ± 0.083	3.25 ± 0.092	2.7 ± 0.074	2.92 ± 0.079
QKLFVQVSNFAPQVYII [GAL11]	2.62 ± 0.077	2.45 ± 0.061	2.86 ± 0.065	2.32 ± 0.049
TKSSLNDLDYDLIADTI [YML103C/NUP188]	2.64 ± 0.07	2.48 ± 0.057	2.27 ± 0.067	2.52 ± 0.053
